What was measured:
[1] = target: T1, FNR648-labeled human serum albumin (human, UniProt P02768 25-609, FNR648 fluorescence dye conjugated (site not stated)); assay: co-IP; SPARC and FNR648-HSA incubated 2 h at 4 °C after pre-clearing (normal rabbit serum, protein A/G PLUS-Agarose); precipitated with rabbit anti-SPARC antibody and protein A/G PLUS-Agarose; 8% SDS-PAGE, FNR648 fluorescence in the gel read by IVIS; conditions: both partners purified
T1 construct: human serum albumin (HSA), human; The pre-clearing step of the IP names plain 'HSA'; the detected species is FNR648-HSA; also called FNR648-HSA; HSA
T1 sequence (P02768 25-609): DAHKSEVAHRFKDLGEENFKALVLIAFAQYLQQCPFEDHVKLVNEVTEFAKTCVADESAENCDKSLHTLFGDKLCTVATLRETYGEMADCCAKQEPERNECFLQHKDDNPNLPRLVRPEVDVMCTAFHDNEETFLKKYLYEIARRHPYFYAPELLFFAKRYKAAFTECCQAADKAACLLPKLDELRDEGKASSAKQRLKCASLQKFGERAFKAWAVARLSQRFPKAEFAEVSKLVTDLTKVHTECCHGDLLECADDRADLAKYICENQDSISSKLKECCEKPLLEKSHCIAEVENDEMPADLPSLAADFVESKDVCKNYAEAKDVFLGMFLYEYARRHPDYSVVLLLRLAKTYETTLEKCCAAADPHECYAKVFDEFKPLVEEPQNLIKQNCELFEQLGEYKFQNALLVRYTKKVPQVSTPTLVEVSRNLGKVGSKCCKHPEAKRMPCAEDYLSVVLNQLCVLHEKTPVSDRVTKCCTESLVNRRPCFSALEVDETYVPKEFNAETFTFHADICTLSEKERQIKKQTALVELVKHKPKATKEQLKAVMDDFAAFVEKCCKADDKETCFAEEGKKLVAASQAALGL

[2] = target: T1, FNR648-labeled human serum albumin; assay: FRET or BRET; Cy3-SPARC (donor) and FNR648-HSA (acceptor) added to U87MG cells; confocal imaging, excitation 514 nm, emission 540-600 nm (Cy3-SPARC) and 640-750 nm (FNR648-HSA); line ROI analysis; conditions: both partners purified

B1: recombinant human SPARC (secreted protein acidic and rich in cysteine) (natural protein, UniProt P09486 18-303, looked up)
chain: APQQEALPDETEVVEETVAEVTEVSVGANPVQVEVGEFDDGAEETEEEVVAENPCQNHHCKHGKVCELDENNTPMCVCQDPTSCPAPIGEFEKVCSNDNKTFDSSCHFFATKCTLEGTKKGHKLHLDYIGPCKYIPPCLDSELTEFPLRMRDWLKNVLVTLYERDEDNNLLTEKQKLRVKKIHENEKRLEAGDHPVELLARDFEKNYNMYIFPVHWQFGQLDQHPIDGYLSHTELAPLRAPLIPMEHCTTRFFETCDLDNDKYIALDEWAGCFGIKQKDIDKDLVI
notes: secreted protein acidic and rich in cysteine (SPARC), human, recombinant, cell-derived; also called exogenous SPARC; source: bought: R&D system (cell-derived, 941-SP)
[1]
  binding result: binds

B2: Cy3-labeled recombinant human SPARC (natural protein, UniProt P09486 18-303, looked up)
chain: APQQEALPDETEVVEETVAEVTEVSVGANPVQVEVGEFDDGAEETEEEVVAENPCQNHHCKHGKVCELDENNTPMCVCQDPTSCPAPIGEFEKVCSNDNKTFDSSCHFFATKCTLEGTKKGHKLHLDYIGPCKYIPPCLDSELTEFPLRMRDWLKNVLVTLYERDEDNNLLTEKQKLRVKKIHENEKRLEAGDHPVELLARDFEKNYNMYIFPVHWQFGQLDQHPIDGYLSHTELAPLRAPLIPMEHCTTRFFETCDLDNDKYIALDEWAGCFGIKQKDIDKDLVI
modifications: ADIBO-NHS conjugated, then Cy3-azide by click reaction (sites not given)
notes: secreted protein acidic and rich in cysteine (SPARC), human, recombinant, cell-derived; Same bought protein as m2, with the Cy3 label; also called Cy3-SPARC; fluorescence-labeled SPARC; source: bought: R&D system (cell-derived, 941-SP), then labelled via ADIBO-NHS and Cy3-azide click reaction
[2]
  binding result: binds
